What was measured:
[1] = target: T1, human IL27 receptor (IL27RA/gp130 heterodimer) on human cells (human, UniProt Q6UWB1 33-636; P40189 23-918); test: cell-based or functional assay
Human IL27RA = target: T2, Human IL27RA (human, UniProt Q6UWB1 33-516); test: SPR Biacore 8K+, 37 C; mAb-4894 captured by anti-Fab, antigen as analyte; 1:1 Langmuir fit
T2 construct: Soluble analyte in SPR and antigen in ELISA/screens; also called huIL27R
T2 sequence: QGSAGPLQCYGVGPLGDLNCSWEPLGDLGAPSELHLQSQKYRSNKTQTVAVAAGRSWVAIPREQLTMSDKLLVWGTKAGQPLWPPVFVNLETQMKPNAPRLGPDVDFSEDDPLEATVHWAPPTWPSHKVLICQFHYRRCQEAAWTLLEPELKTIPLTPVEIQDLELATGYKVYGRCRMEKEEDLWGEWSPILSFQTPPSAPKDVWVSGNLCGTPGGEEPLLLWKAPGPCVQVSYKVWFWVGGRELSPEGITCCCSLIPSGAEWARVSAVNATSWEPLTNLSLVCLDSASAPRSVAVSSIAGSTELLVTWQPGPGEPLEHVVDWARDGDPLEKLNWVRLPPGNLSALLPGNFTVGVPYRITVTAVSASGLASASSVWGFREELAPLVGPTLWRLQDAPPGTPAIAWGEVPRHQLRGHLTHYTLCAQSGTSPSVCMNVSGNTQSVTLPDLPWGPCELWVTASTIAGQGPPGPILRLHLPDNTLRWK
Description: The crossreactivity of mAb-4894 to human and cynomolgus monkey antigens, gp130 (human—SEQ ID NO: 45, cynomolgus—SEQ ID No: 46) and IL27RA (human—SEQ ID NO: 41, cynomolgus—SEQ ID No: 42), was measured by surface plasmon resonance by anti-FAB capture of mAb-4894 (containing arms of anti-IL27RA-4880 EE and anti-gp130-4875 RR) on a biacore chip. Human or cynomolgus monkey IL27RA or gp130 was flowed over the chip and on and off rates were determined, and the affinity constants calculated.
Flow cell 1 for each channel was used as a reference flow cell. After antibody capture, three-fold dilution series of cytokines with concentrations ranging from 405 nM to 15 nM for huGP130 and cyGP130 and 45 nM to 1.67 nM for huIL27R and cyIL27R or HBS-EP+ buffer were injected over the sensor surface for 60 seconds at 50 μl/minute. The dissociation was monitored for 600 seconds and the surface was regenerated with 2 injections of 10 mM Glycine pH 1.7 at 30 μl/minute. The data was double referenced (Myszka, D., J. Mol. Recognit 1999; 279-284). Binding affinities and rate constants were determined for human and cyno GP130 and IL27R by fitting the resulting sensorgram data to a 1:1 Langmuir model in BIAcore Insight Evaluation software version 3.0.12.15655 (Cytiva).

[2] = target: T1, human IL27 receptor (IL27RA/gp130 …); test: cell-based or functional assay; remark: listed apart in the source
[3] = target: T3, cynomolgus IL27 receptor (IL27RA/gp130 heterodimer) on cynomolgus T cells (cynomolgus monkey); test: cell-based or functional assay
T3 chain 1: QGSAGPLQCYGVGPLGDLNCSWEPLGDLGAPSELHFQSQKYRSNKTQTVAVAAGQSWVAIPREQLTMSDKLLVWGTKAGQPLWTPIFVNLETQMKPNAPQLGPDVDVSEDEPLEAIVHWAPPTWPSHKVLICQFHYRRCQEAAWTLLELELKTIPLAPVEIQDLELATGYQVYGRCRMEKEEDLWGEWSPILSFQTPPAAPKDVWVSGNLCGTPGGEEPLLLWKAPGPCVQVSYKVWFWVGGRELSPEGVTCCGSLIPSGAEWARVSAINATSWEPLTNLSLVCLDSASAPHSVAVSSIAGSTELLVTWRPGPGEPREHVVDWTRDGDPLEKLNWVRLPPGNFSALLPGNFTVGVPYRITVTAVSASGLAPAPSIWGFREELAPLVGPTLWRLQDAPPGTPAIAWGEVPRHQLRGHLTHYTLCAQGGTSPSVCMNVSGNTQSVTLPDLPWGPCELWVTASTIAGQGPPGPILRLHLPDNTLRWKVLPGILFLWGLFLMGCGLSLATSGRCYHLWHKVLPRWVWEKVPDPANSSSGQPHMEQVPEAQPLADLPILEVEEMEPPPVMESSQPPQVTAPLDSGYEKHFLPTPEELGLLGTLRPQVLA
T3 chain 2: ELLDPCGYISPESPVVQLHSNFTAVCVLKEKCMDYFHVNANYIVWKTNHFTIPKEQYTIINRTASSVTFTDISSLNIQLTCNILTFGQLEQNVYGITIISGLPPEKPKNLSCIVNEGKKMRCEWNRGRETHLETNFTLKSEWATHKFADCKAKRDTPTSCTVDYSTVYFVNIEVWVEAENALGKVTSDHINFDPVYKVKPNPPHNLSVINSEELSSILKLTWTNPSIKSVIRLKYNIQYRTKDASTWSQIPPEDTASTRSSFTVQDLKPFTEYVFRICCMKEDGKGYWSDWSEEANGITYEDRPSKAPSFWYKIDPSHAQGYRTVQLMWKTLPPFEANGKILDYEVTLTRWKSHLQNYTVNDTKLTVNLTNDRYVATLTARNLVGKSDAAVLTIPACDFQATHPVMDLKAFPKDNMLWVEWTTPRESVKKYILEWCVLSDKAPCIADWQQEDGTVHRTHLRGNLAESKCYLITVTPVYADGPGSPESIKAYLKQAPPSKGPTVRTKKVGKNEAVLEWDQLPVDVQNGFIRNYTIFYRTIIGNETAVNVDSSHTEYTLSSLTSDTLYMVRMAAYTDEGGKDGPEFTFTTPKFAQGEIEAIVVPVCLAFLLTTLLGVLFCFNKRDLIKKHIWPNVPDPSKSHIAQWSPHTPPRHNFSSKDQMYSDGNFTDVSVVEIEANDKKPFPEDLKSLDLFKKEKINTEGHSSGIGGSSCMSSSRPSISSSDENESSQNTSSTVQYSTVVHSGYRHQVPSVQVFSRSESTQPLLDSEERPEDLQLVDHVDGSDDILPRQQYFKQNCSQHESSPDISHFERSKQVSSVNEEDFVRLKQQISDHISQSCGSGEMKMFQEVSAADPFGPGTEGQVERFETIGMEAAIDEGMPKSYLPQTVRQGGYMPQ

B1: mAb-4894 anti-IL27RA/gp130 bispecific antibody (bispecific antibody, human IgG1)
heavy 1: EVQLVESGGGLVQPGGSLRLSCAASGFTFEYFGLQWVRQAPGKGLEWIGYTSSGGNYEYYEETLKGRFTISRDNAKNSLYLQMNSLRAEDTAVYYCARTKTGDYWGQGTLVTVSSASTKGPSVFPLAPSSKSTSGGTAALGCLVKDYFPEPVTVSWNSGALTSGVHTFPAVLQSSGLYSLSSVVTVPSSSLGTQTYICNVNHKPSNTKVDKKVEPKSCEKTHTCPPCPAPEAAGAPSVFLFPPKPKDTLMISRTPEVTCVVVDVSHEDPEVKFNWYVDGVEVHNAKTKPREEQYNSTYRVVSVLTVLHQDWLNGKEYKCKVSNKALPAPIEKTISKAKGQPREPQVYTLPPSREEMTKNQVSLTCEVKGFYPSDIAVEWESNGQPENNYKTTPPVLDSDGSFFLYSKLTVDKSRWQQGNVFSCSVMHEALHNHYTQKSLSLSPGK
light 1: DIQMTQSPSSLSASVGDRVTITCRASQDIGNSLTWYQQKPGKAPKRVIFGATGLAAGVPSRFSGSGSGTDFTLTISSLQPEDFATYYCLQSKQYPYTFGQGTKLEIKRTVAAPSVFIFPPSDEQLKSGTASVVCLLNNFYPREAKVQWKVDNALQSGNSQESVTEQDSKDSTYSLSSTLTLSKADYEKHKVYACEVTHQGLSSPVTKSFNRGEC
heavy 2: QVQLVQSGAEVKKPGSSVKVSCKVSGGSISSYYWSWVRQAPGQGLEWIGRIYITGNTNYNPSLKDRVTMTVDTSTSTHYMELSSLRSEDTAVYYCAREGPKLGIFDYWGQGTLVTVSSASTKGPSVFPLAPSSKSTSGGTAALGCLVKDYFPEPVTVSWNSGALTSGVHTFPAVLQSSGLYSLSSVVTVPSSSLGTQTYICNVNHKPSNTKVDKKVEPKSCRKTHTCPPCPAPEAAGAPSVFLFPPKPKDTLMISRTPEVTCVVVDVSHEDPEVKFNWYVDGVEVHNAKTKPREEQYNSTYRVVSVLTVLHQDWLNGKEYKCKVSNKALPAPIEKTISKAKGQPREPQVYTLPPSREEMTKNQVSLTCLVKGFYPSDIAVEWESNGQPENNYKTTPPVLDSDGSFFLYSRLTVDKSRWQQGNVFSCSVMHEALHNHYTQKSLSLSPGK
light 2: DIQMTQSPSSLSASVGDRVTITCRASQSVSSSYLAWYQQKPGKAPKLLIYGTESRATGVPSRFSGSGSGTDFTLTISSLQPEDFATYYCQQYGGYPTFGGGTKVEIKRTVAAPSVFIFPPSDEQLKSGTASVVCLLNNFYPREAKVQWKVDNALQSGNSQESVTEQDSKDSTYSLSSTLTLSKADYEKHKVYACEVTHQGLSSPVTKSFNRGEC
notes: Human IgG1 EE/RR heterodimer with L234A, L235A, G237A (EU); also called GBT-IL27R-4894; GBT-IL-27R-4894
B1 was tested, and the “IDO1 mRNA expression in primary cultured human colonocytes, average EC50” value [1] was 20 nM, the “pSTAT1 in CD3+ T cells from human whole blood, average EC50” value [1] was 0.43 nM and the “pSTAT3 in CD3+ T cells from human whole blood, average EC50” value [1] was 0.23 nM. It also gave a Kd (Human IL27RA) of 0.11 nM, a koff (Human IL27RA) of 0.00011 s⁻¹ and a kon (Human IL27RA) of 998000 M⁻¹ s⁻¹. For the same binder, the “Monocyte IDO1 EC50 (human PBMC, CD14+ monocytes, flow cytometry)” value [2] was 0.005 nM, the “Monocyte PD-L1 EC50 (human whole blood, flow cytometry)” value [2] was 0.002 nM and the “Primary Colonocytes IDO1 activity EC50 (kynurenine by LC-MS)” value [2] was 5.4 nM. The “T Cell pSTAT1 EC50 (human whole blood, CD3+ T cells, flow cytometry)” value [2] was 0.4 nM, the “T Cell pSTAT3 EC50 (human whole blood, CD3+ T cells, flow cytometry)” value [2] was 0.2 nM and the “T Cell pSTAT1 EC50 (cynomolgus whole blood, CD3+ T cells, flow cytometry)” value [3] was 1.74 nM. For the same binder, the “T Cell pSTAT3 EC50 (cynomolgus whole blood, CD3+ T cells, flow cytometry)” value [3] was 1.17 nM.

— patent US20240052047A1 (Pfizer, published 2024)
